Laboratory results published in article PMC5997990.

Legend:
[1] = molecular target: T7 helicase-primase gp4A' (wild-type helicase) (bacteriophage T7) (UniProt P03692)
[2] = molecular target: T7 helicase-primase gp4A' (wild-type helicase) (bacteriophage T7) (UniProt P03692); assay: single-molecule optical trapping (DNA unzipping force); helicase and DNAP in solution with a tethered forked dsDNA, 2 mM dTTP; after helicase unwound ~1000 bp under 9 pN the remaining DNA was unzipped mechanically at 2000 bp/s; a force-rise above the naked DNA baseline shows protein bound across the fork junction; 50 mM Tris-HCl pH 7.5, 40 mM NaCl, 10% glycerol; 25 ± 1 °C

- replication re-initiation efficiency after collision with a stalled E. coli TEC, normalised against the TEC formation efficiency [1]: 15%
- traces that passed a stalled co-directional E. coli TEC and went over to unwinding with leading-strand synthesis, 0.5 mM dNTP each, 5 pN [1]: 12%
- peak of the force-rise [2]: 26 pN
- percent of traces with a force-rise above the naked DNA baseline [2]: 75%
Substance: T7 DNA polymerase (gp5/trx complex), exo- gp5 (D5A, D7A) with E. coli thioredoxin (from UniProt P00581 1-704; P0AA25 1-109)
